Read-outs that look alike come from different tables or passages of the source.

The record followed here is publication PMC5464773 (2017).

Holding throughout (assay): FP
For one assay, the target named is T1, Myc-tagged Mcl-1 (human, UniProt Q07820 1-350).
T1 chain: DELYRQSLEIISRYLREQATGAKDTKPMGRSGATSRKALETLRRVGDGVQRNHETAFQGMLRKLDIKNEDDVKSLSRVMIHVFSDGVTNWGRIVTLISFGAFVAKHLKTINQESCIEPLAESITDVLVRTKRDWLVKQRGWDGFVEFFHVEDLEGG

For assay [1], the target named is T2, Myc-tagged Bfl-1 (human, UniProt Q16548 1-175).
T2 chain: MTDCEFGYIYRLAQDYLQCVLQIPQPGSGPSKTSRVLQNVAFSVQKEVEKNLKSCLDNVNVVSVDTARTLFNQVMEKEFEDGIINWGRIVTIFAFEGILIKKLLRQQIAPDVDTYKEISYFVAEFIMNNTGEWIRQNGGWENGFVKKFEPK

The next assay concerns the target T3, Myc-tagged Bcl-w (human, UniProt Q92843 1-193).
T3 chain: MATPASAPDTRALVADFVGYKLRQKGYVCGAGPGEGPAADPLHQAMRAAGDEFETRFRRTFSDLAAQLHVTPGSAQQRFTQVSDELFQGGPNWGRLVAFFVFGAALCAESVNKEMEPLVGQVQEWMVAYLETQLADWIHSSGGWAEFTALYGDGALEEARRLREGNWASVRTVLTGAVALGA

Assay [2] concerns the target T2, Myc-tagged Bfl-1.
Another assay addresses Myc-tagged Bcl-2 (human, UniProt P10415 1-239).
The target in a further assay is Myc-tagged Bcl-xL (human, UniProt Q07817-1 1-233).
Sequence of Myc-tagged Bcl-xL (Q07817 1-209): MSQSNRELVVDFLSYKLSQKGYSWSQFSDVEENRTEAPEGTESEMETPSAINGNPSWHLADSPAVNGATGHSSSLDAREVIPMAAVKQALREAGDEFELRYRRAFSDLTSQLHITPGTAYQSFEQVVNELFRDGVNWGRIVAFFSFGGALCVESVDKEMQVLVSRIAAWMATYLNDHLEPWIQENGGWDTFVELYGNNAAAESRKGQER

Sequence of Myc-tagged Bcl-2 (P10415 1-211): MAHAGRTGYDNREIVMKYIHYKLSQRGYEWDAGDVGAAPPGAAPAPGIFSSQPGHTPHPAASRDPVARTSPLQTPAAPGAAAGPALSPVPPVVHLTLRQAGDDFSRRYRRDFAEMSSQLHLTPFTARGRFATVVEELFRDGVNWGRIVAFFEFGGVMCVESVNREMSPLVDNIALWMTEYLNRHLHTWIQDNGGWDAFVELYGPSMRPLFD

For orientation: Ki means a measure of affinity in units of concentration, obtained from inhibition or displacement. High values mean lower affinity, low ones higher affinity. Regarding Ac-QWAREIGAQLRRMADDLNAQYER-NH2 [PUMA BH3 peptide (23 residues)], the Ki worked out at 2.4 nM with Myc-tagged Mcl-1, 4.8 nM with Myc-tagged Bfl-1 [1] and 3 nM with Myc-tagged Bcl-w.

For Ac-QWAREIGAGLRRAADDVNAQVER-NH2 [PUMA/FS2 chimeric peptide with the smaller residues of FS2 at positions 2g, 3d, 4a and 4e], the Ki in the assay with Myc-tagged Bfl-1 [2] came out at 600 nM. This lies in the sub-micromolar range.

Consider Ac-QWVREIAAGLRRAADDVNAQVER-NH2 (designed binder) [FS2], for which the Ki in the assay with Myc-tagged Mcl-1 was 3200 nM; with Myc-tagged Bfl-1 [1] it was 21 nM; in the assay with Myc-tagged Bcl-2, 2400 nM; with Myc-tagged Bcl-xL, more than 5000 nM; with Myc-tagged Bcl-w, more than 5000 nM.

In turn, Ac-QWVREIAAQLRRMADDLNAQYER-NH2 [PUMA/FS2 chimeric peptide with the larger residues of FS2 at positions 2a and 2e] came in with a Ki with Myc-tagged Bfl-1 [2] of 2.1 nM.

Turning to Ac-QWIREIAAGLRRFADILNAQVER-NH2 (designed binder) [FS3], the Ki with Myc-tagged Mcl-1 stood at 550 nM; with Myc-tagged Bfl-1 [1] it was 2.1 nM; with Myc-tagged Bcl-2 it was 2000 nM; in the assay with Myc-tagged Bcl-xL it was 320 nM; with Myc-tagged Bcl-w it was 770 nM.

As to Ac-QWVREIAAGLRLAADNVNAQLER-NH2 (designed binder) [FS1], the Ki with Myc-tagged Mcl-1 is more than 5000 nM; with Myc-tagged Bcl-2, more than 5000 nM; with Myc-tagged Bcl-xL it was 2400 nM; with Myc-tagged Bcl-w, more than 5000 nM.
